The target in experiment [1] is T1, full-length beta-Catenin (Uniprot ID P35222) (Homo sapiens (Human), UniProt P35222 1-781).
T1 construct: also called bCat; B-Catenin
T1 sequence: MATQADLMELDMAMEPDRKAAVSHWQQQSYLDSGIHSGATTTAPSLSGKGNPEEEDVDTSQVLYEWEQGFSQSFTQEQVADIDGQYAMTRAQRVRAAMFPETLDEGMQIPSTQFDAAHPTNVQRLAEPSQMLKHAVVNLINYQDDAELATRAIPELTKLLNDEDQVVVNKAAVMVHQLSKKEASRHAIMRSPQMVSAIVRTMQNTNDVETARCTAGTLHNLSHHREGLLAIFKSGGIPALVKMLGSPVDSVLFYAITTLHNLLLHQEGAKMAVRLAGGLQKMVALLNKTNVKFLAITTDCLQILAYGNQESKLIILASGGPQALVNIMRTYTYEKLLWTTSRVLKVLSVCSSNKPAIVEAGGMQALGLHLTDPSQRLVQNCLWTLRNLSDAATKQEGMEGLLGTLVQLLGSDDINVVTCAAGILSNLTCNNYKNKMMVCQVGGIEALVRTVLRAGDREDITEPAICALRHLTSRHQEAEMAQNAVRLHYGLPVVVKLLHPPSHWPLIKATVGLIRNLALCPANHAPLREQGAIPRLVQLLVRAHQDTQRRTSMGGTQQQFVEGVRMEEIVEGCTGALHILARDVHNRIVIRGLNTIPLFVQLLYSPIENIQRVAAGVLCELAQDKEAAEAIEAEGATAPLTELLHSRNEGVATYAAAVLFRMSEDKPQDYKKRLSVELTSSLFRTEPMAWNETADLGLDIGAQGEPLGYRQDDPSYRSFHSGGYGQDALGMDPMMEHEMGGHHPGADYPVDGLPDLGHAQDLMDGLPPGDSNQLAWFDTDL
As to the kind of experiment: fluorescence polarization competition; full-length beta-catenin, competitor 5FAM-TCF4(10-53) probe. The procedure, abridged: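 Incubate 60 minutes at 20° C. away from light, then read polarization in duplicate. Fit to 1:1 binding with hill slope.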
A general note: Fluorescence polarisation rises when a labelled molecule tumbles more slowly, as on binding a larger partner.

The target of experiment [2] is T2, B-cat-Halo (UniProt P35222 1-781, HaloTag NanoBRET 618 Ligand bound in the assay).
T2 construct: Transfected into HEK293 cells for the NanoBRET assay; also called beta-catenin HaloTag NanoBRET construct; not shown: HaloTag
T2 sequence (looked up): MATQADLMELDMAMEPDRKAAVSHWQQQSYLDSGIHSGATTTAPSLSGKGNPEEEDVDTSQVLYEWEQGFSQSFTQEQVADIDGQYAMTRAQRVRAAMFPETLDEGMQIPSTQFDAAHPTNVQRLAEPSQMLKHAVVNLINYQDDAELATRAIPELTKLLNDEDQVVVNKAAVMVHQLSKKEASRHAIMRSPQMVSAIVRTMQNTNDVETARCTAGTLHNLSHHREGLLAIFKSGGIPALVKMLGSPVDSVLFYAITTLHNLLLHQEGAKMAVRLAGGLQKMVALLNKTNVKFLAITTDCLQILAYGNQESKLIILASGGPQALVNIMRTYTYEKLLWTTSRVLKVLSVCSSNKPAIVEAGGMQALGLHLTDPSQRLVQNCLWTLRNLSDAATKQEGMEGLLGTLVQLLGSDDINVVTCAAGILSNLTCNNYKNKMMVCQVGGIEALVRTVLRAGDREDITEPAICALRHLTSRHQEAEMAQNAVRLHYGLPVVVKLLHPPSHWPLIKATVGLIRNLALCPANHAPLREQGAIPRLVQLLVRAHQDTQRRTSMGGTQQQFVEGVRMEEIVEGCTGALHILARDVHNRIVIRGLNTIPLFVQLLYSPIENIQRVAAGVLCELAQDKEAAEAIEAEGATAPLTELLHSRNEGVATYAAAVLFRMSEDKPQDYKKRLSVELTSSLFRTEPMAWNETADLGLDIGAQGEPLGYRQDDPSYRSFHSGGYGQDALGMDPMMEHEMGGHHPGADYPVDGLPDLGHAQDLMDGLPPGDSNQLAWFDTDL
As to the kind of experiment: NanoBRET Abs IC50 in HEK293 cells; B-cat-Halo, competitor TCF4-Luc. On the technique in general: Bioluminescence resonance energy transfer reports proximity on the nanometre scale.

Experiment [3] has as its target T3, B-cat-Halo (UniProt P35222 1-781).
T3 construct: Expressed by transfection in HEK293 cells for the NanoBRET assay; also called beta-catenin HaloTag NanoBRET construct; not shown: HaloTag
T3 sequence (looked up): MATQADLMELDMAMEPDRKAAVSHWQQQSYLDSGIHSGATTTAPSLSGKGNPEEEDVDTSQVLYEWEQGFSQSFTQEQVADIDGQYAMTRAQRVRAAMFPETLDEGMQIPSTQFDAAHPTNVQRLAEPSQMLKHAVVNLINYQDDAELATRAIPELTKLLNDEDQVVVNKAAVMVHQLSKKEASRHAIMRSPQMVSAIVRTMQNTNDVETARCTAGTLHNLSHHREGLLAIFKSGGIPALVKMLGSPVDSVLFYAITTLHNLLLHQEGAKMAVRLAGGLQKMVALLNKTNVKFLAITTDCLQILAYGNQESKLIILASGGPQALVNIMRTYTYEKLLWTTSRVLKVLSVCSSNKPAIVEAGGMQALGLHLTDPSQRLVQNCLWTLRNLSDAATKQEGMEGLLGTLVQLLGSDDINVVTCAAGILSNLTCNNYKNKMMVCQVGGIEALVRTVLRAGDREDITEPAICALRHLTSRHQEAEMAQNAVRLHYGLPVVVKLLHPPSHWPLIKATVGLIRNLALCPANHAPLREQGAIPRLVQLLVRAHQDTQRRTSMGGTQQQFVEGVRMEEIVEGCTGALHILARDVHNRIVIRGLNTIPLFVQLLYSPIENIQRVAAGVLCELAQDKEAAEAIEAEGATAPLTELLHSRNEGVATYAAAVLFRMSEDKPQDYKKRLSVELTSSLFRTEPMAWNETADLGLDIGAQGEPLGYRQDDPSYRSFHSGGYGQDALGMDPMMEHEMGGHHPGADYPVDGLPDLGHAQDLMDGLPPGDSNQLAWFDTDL
As to the kind of experiment: NanoBRET Abs IC50 in HEK293 cells; Bcat-Halo, TCF4-Luc as competitor.

Experiment [4] deals with T4, full-length beta-Catenin (Uniprot ID P35222) (Homo sapiens (Human), UniProt P35222 1-781).
T4 construct: also called bCat; B-Catenin
T4 sequence: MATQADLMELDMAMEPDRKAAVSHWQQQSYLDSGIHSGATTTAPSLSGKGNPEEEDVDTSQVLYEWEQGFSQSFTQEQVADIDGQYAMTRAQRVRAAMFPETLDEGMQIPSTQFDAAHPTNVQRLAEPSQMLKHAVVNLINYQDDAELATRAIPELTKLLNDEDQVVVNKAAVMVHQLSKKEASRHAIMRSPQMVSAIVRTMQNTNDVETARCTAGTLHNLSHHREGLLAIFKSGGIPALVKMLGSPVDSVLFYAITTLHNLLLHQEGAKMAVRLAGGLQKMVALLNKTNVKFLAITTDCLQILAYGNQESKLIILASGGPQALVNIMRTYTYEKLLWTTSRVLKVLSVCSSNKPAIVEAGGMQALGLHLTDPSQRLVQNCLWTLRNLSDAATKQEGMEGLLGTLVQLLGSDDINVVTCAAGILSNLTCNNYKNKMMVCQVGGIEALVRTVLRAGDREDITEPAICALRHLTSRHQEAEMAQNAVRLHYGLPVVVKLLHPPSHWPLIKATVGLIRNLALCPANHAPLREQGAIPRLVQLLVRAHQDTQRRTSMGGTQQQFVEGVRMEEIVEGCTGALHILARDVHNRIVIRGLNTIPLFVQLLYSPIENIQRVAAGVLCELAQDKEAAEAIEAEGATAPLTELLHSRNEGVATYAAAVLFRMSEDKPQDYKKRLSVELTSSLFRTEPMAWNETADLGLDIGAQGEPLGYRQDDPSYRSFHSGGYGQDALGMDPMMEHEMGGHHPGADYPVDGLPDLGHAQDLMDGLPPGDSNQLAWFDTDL
The experiment is described as follows: competition fluorescence polarization; full-length beta-catenin, 5FAM-TCF4(10-53) probe as competitor. The protocol:
The plate was incubated protected from light for 60 minutes at 20° C. prior to read. Reads were performed on a CLARIOstar plate reader (BMG Labtech) in duplicate, and data were fitted to a 1:1 binding model with hill slope using an in-house script. All provided concentrations are final concentrations.

Starred links: 1 amine or outer side, 2 acyl side, 3 side chain; linkers in the order of their positions; H or OH if unused. Positions of bridges follow the written chain, without caps; N, C: chain ends. Non-standard residues stand in square brackets, D forms with d. Primed or numbered codes have the meaning given here. B5(17) = 2,2-bis(4-pentenyl)glycine = 2-amino-2-(pent-4-en-1-yl)hept-6-enoic acid, stitching residue, C=CCCCC(CCCC=C)(N[*:1])C(=O)[*:2]; B5(5) = 2,2-bis(4-pentenyl)glycine, 2-amino-2-(pent-4-en-1-yl)hept-6-enoic acid (stitching residue), C=CCCCC(CCCC=C)(N[*:1])C(=O)[*:2]; B5(21) = 2-amino-2-(pent-4-en-1-yl)hept-6-enoic acid, bis(4-pentenyl)glycine (stitching residue), C=CCCCC(CCCC=C)(N[*:1])C(=O)[*:2]; Bta = N[C@@H](Cc1csc2ccccc12)C(=O)O; αAllylPro = C=CC[C@@]1(C(=O)O)CCCN1; S8 = C=CCCCCCC[C@](C)(N)C(=O)O A value given as a limit tells only on which side of the number the result lay.

B1: I-731 (peptide)
peptide: Ac-[αAllylPro]DL[B5(17)]DEAAFN[S8]F[Bta]Q[dA]-NH2
modifications: staple 1-4, 4-11
notes: also called Ac-PL3-Asp-Leu-B5-Asp-Glu-Ala-Ala-Phe-Asn-S8-Phe-BztA-Gln-dAla-NH2
Take B1: the values for the IC50 (in experiment [1]; in the experiment with B-cat-Halo [2]) were 34 nM and 11.6 µM, respectively.

B2: I-563 (peptide)
peptide: XDLXDDAAFNXFXQ
modifications: not fully specified; N-terminal Ac; C-terminal NH2; non-natural PL3 (1), B5 (4), S8 (11), BztA (13); stapled PL3-B5 and B5-S8 by olefin metathesis
notes: Stapled peptide composition; also called Ac-PL3-Asp-Leu-B5-Asp-Asp-Ala-Ala-Phe-Asn-S8-Phe-BztA-Gln-NH2
Turning to B2, the IC50 in the experiment with B-cat-Halo [3] was 15.7 µM; in experiment [4], 19 nM.

B3: I-564 (peptide)
peptide: Ac-[αAllylPro]DL[B5(5)]DDAAFN[S8]F[Bta]H-NH2
modifications: staple 1-4, 4-11
notes: Stapled peptide composition; also called Ac-PL3-Asp-Leu-B5-Asp-Asp-Ala-Ala-Phe-Asn-S8-Phe-BztA-His-NH2
For the molecule B3, the half-inhibitory concentration (IC50) with B-cat-Halo [3] is over 20 µM; in experiment [4], 36 nM.

B4: I-577 (peptide)
peptide: Ac-[αAllylPro]DL[B5(21)]DEAAFN[S8]F[Bta]Q-NH2
modifications: staple 1-4, 4-11; not fully specified
notes: Stapled peptide composition; also called Ac-PL3-Asp-Leu-B5-Asp-Glu-Ala-Ala-Phe-Asn-S8-Phe-BztA-Gln-NH2
In the experiment with B-cat-Halo [3], B4 displayed an IC50 of 10.4 µM.

B5: I-567 (peptide)
peptide: XDVXDDAAFNXFXQ
modifications: not fully specified; N-terminal Ac; C-terminal NH2; non-natural PL3 (1), B5 (4), S8 (11), BztA (13); stapled PL3-B5 and B5-S8 by olefin metathesis
notes: Stapled peptide composition; also called Ac-PL3-Asp-Val-B5-Asp-Asp-Ala-Ala-Phe-Asn-S8-Phe-BztA-Gln-NH2
For B5, the IC50 in experiment [4] was 37 nM.

B6: I-566 (peptide)
peptide: XDVXDDAAFNXFXQ
modifications: not fully specified; N-terminal Ac; C-terminal NH2; non-natural PL3 (1), B5 (4), S8 (11), BztA (13); stapled PL3-B5 and B5-S8 by olefin metathesis
notes: as for B5
For the molecule B6, the IC50 in experiment [4] stood at 76 nM.

B7: I-749 (peptide)
peptide: XDLXDEAAFNXFXT
modifications: not fully specified; N-terminal Ac; C-terminal NH2; PL3 at 1, B5 at 4, S8 at 11, BztA at 13; stapled PL3-B5 and B5-S8 by olefin metathesis
notes: Stapled peptide; also called Ac-PL3-Asp-Leu-B5-Asp-Glu-Ala-Ala-Phe-Asn-S8-Phe-BztA-Thr-NH2
On to B7, for which the IC50 in experiment [1] is 40 nM; with B-cat-Halo [2], 9 µM.

A word on the IC50: it is the midpoint of a concentration-inhibition curve. A high value points to lower potency.

Values taken from patent US20240116985A1 (published 2024).
